The values that follow come from patent US20190292266A1 (NAVIGO PROTEINS, published 2019).

In the experiment the target is T1, CD3 (Example 7).
T1 construct: Partner of the 145-2C11 Fab and its fusions
Put plainly: SPR, biotinylated CD3 on SA chip, Langmuir 1:1. As to the method:
For SPR-analysis of PD1/CD3, a CM5 sensor Chip (GE Healthcare) with immobilized target PD1 (about 800 RU) was prepared. CD3 was 10 times biotinylated and immobilized on SA coupled sensor chip (GE Healthcare) of about 200 RU. Specific binding of biotin and streptavidin provides a strong interaction of the target protein on the chip. Injection of free biotin blocks unbound streptavidin avoiding unspecific interaction during measurement. Determination of dissociation constant and data evaluation was equal to Example 6.
(Surface plasmon resonance follows binding to a sensor surface in real time, without labels.)

T1 sequence (P22646 22-108): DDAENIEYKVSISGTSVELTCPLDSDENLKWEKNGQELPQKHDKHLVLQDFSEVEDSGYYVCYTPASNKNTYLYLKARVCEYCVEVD

B1: 145-2C11 Fab Fragment (Fab, V domains shown)
VH: EVQLVESGGGLVQPGKSLKLSCEASGFTFSGYGMHWVRQAPGRGLESVAYITSSSINIKYADAVKGRFTVSRDNAKNLLFLQMNILKSEDTAMYYCARFDWDKNYWGQGTMVTVSS
VL: DIQMTQSPSSLPASLGDRVTINCQASQDISNYLNWYQQKPGKAPKLLIYYTNKLADGVPSRFSGSGSGRDSSFTISSLESEDIGSYYCQQYYNYPWTFGPGTKLEIKR
notes: also called PID 38; CD3 specific Fab fragment
On to B1, for which the Kd (as a rule, the constant that tells how readily two partners part at equilibrium) was 13.4 nM; the koff (in general, a measure of how fast the partners let go of each other) was found to be 0.00296 s⁻¹; the kon (commonly the rate constant with which the complex forms) was 221000 M⁻¹ s⁻¹.
